For 2 molecules, Kd results are on record in publication PMC10073072 (2023).

In one test the target is METTL9^46–318 (human, UniProt Q9H1A3 46-318). The experiment in a line: ITC.
Test [1] has as its target METTL9^M6 (METTL9^46–318 with six mutations) (human, UniProt Q9H1A3 46-318). The experiment in a line: ITC. In general terms: ITC needs no label: the signal is the heat of the interaction.

Sequence of METTL9^46–318 (Q9H1A3 46-318): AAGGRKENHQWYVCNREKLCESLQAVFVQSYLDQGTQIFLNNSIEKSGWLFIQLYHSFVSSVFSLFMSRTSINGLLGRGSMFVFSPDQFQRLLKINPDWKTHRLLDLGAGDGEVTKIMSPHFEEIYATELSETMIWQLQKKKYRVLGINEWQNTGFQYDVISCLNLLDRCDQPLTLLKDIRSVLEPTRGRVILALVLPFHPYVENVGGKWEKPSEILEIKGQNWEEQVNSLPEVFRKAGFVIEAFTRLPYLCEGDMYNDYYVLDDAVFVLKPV
Sequence of METTL9^M6 (METTL9^46–318 with six mutations) (Q9H1A3 other isoform, or with tags, fused parts or gaps): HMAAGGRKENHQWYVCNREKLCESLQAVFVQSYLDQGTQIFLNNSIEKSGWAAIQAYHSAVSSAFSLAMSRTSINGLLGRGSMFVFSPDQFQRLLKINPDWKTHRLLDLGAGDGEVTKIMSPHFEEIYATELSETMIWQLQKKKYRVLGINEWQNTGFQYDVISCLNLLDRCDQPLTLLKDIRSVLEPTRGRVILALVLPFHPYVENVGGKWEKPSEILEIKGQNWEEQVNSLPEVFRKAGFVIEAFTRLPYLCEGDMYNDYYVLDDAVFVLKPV

RGHGHSHGKGC [mouse S100A9^101–111 peptide]: the Kd with METTL9^46–318 is 2.3 µM; in test [1] it was 3.6 µM.
The corresponding values for GHQGHSHGHQGGY [SLC39A5^369–380 peptide] are 9.3 µM and 9 µM.

The Kd is the free concentration of one partner at which half of the binding sites on the other are occupied at equilibrium, for simple one-to-one binding. Low values mean a tighter complex, high ones a looser complex.
